Literature values as cited in publication PMC3736882.

Molecular target: Factor VIII (Homo sapiens) (UniProt P00451)
Chain of UniProt P00451 (P00451 760-1332): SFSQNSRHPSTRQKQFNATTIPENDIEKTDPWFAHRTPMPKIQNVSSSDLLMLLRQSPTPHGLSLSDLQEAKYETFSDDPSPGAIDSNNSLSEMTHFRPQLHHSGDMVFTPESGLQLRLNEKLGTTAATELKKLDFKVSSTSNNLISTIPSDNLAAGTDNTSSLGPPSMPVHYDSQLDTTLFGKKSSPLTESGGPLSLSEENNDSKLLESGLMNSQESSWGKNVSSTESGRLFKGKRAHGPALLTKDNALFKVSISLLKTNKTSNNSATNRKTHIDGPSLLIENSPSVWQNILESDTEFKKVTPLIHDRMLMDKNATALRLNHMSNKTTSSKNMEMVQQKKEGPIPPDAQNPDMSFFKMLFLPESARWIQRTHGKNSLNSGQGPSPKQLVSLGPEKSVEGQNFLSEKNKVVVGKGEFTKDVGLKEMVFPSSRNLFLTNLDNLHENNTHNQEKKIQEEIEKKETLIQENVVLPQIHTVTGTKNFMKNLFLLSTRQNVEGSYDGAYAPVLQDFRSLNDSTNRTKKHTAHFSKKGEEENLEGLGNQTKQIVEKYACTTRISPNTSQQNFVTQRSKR

Kd: < 1 nM
Substance: von Willebrand factor (from UniProt P04275)
